In patent publication US20220401537A1:

Biological target: recombinant human ROR1 ectodomain containing a C-terminal Avi tag, biotinylated (human) (UniProt Q01973)
Assay: cell-based or functional assay

UniProt Q01973, sequence (Q01973 30-406): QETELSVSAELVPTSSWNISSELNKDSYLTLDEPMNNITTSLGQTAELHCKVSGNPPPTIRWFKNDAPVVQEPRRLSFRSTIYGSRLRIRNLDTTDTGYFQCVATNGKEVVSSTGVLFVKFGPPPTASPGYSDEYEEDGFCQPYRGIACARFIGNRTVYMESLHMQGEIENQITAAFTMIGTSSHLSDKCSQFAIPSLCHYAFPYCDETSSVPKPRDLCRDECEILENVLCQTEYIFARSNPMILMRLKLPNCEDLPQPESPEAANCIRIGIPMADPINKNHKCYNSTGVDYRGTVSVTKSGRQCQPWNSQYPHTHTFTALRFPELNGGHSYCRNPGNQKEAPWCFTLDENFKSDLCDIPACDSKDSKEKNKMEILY

- fraction of CAR T cells activated (Ca2+ mobilization, Fluo-4) during 20 minutes on a ROR1-containing bilayer: < 10%
Substance: ROR1-specific 4-1BB/CD3ζ CAR backbone containing a StrepTag II (STII) sequence and two G4S linkers inserted between the R12 scFv and IgG4 hinge (from UniProt P10747 153-179; Q07011 214-255; P20963 52-163)
